What follows are sequences tested on Escherichia coli TOP10 (assay: shrunken log2 fold change of peptide-encoding DNA abundance (4.5 h post-induction vs induction); higher = less antimicrobial activity (less host growth inhibition)). Conditions: time post-induction: 4.5 h; library: site-saturation at positions 5, 18, 19, 20.
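Note: peptides expressed intracellularly from a pBAD plasmid library in pooled LB shake-flask culture, induced with 0.3% L-arabinose, DNA abundance read by NGS, three biological replicates, DESeq2 with apeglm shrinkage.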

| Sequence | shrunken log2 fold change |
| --- | --- |
| RRIRNRPPRLPRPRPRPVPHPRP | -0.0692 |
| RRIRNRPPRLPRPRPRPVPIPRP | -0.0984 |
| RRIRNRPPRLPRPRPRPVPVPRP | -0.0667 |
| RRIRNRPPRLPRPRPRPVRGPRP | 0.649 |
| RRIRNRPPRLPRPRPRPVRKPRP | 0.128 |
| RRIRNRPPRLPRPRPRPVSDPRP | -0.192 |
| RRIRNRPPRLPRPRPRPVSPPRP | -0.087 |
| RRIRNRPPRLPRPRPRPVVAPRP | -0.0949 |
| RRIRNRPPRLPRPRPRPVVMPRP | 0.00659 |
| RRIRNRPPRLPRPRPRPVVVPRP | -0.11 |
| RRIRNRPPRLPRPRPRPVWGPRP | 0.283 |
| RRIRNRPPRLPRPRPRPVWIPRP | -0.111 |
| RRIRNRPPRLPRPRPRPVWPPRP | 0.199 |
| RRIRNRPPRLPRPRPRPWAIPRP | -0.179 |
| RRIRNRPPRLPRPRPRPWCPPRP | -0.752 |
| RRIRNRPPRLPRPRPRPWCSPRP | -0.535 |
| RRIRNRPPRLPRPRPRPWDLPRP | 0.0191 |
| RRIRNRPPRLPRPRPRPWDMPRP | -0.304 |
| RRIRNRPPRLPRPRPRPWDPPRP | -0.00879 |
| RRIRNRPPRLPRPRPRPWDYPRP | -0.0686 |
| RRIRNRPPRLPRPRPRPWGDPRP | -0.0233 |
| RRIRNRPPRLPRPRPRPWGGPRP | -0.113 |
| RRIRNRPPRLPRPRPRPWGSPRP | -0.275 |
| RRIRNRPPRLPRPRPRPWINPRP | -0.0185 |
| RRIRNRPPRLPRPRPRPWIYPRP | -0.187 |

| Sequence | shrunken log2 fold change |
| --- | --- |
| RRIRNRPPRLPRPRPRPWKDPRP | -0.00136 |
| RRIRNRPPRLPRPRPRPWKEPRP | -0.59 |
| RRIRNRPPRLPRPRPRPWKPPRP | 0.0219 |
| RRIRNRPPRLPRPRPRPWLPPRP | -0.0828 |
| RRIRNRPPRLPRPRPRPWLTPRP | -0.0905 |
| RRIRNRPPRLPRPRPRPWLWPRP | 0.165 |
| RRIRNRPPRLPRPRPRPWMTPRP | -0.189 |
| RRIRNRPPRLPRPRPRPWQHPRP | 0.178 |
| RRIRNRPPRLPRPRPRPWQRPRP | -0.0153 |
| RRIRNRPPRLPRPRPRPWREPRP | 0.262 |
| RRIRNRPPRLPRPRPRPWTEPRP | -0.249 |
| RRIRNRPPRLPRPRPRPWVQPRP | 0.00853 |
| RRIRNRPPRLPRPRPRPWWAPRP | -0.0446 |
| RRIRNRPPRLPRPRPRPWWPPRP | -0.218 |
| RRIRNRPPRLPRPRPRPWYMPRP | -0.911 |
| RRIRNRPPRLPRPRPRPYAYPRP | -0.533 |
| RRIRNRPPRLPRPRPRPYCWPRP | -0.425 |
| RRIRNRPPRLPRPRPRPYCYPRP | -1.44 |
| RRIRNRPPRLPRPRPRPYEYPRP | -0.675 |
| RRIRNRPPRLPRPRPRPYGCPRP | -0.146 |
| RRIRNRPPRLPRPRPRPYGHPRP | -0.256 |
| RRIRNRPPRLPRPRPRPYGKPRP | -0.0718 |
| RRIRNRPPRLPRPRPRPYIAPRP | -0.172 |
| RRIRNRPPRLPRPRPRPYIDPRP | 0.0433 |
| RRIRNRPPRLPRPRPRPYIYPRP | -0.514 |

| Sequence | shrunken log2 fold change |
| --- | --- |
| RRIRNRPPRLPRPRPRPYKLPRP | -0.66 |
| RRIRNRPPRLPRPRPRPYLNPRP | -0.487 |
| RRIRNRPPRLPRPRPRPYNKPRP | -0.963 |
| RRIRNRPPRLPRPRPRPYNMPRP | -0.0281 |
| RRIRNRPPRLPRPRPRPYNYPRP | -0.067 |
| RRIRNRPPRLPRPRPRPYPEPRP | -1.11 |
| RRIRNRPPRLPRPRPRPYPSPRP | 0.0309 |
| RRIRNRPPRLPRPRPRPYQRPRP | -0.0199 |
| RRIRNRPPRLPRPRPRPYRGPRP | -0.0134 |
| RRIRNRPPRLPRPRPRPYTQPRP | -0.798 |
| RRIRNRPPRLPRPRPRPYWRPRP | -0.312 |
| RRIRNRPPRLPRPRPRPYYEPRP | -0.793 |
| RRIRPRPPRLPRPRPRPAADPRP | 0.282 |
| RRIRPRPPRLPRPRPRPACMPRP | 0.165 |
| RRIRPRPPRLPRPRPRPACNPRP | 0.00285 |
| RRIRPRPPRLPRPRPRPADYPRP | 0.0631 |
| RRIRPRPPRLPRPRPRPAEFPRP | -0.0142 |
| RRIRPRPPRLPRPRPRPAENPRP | -0.197 |
| RRIRPRPPRLPRPRPRPAFCPRP | 0.104 |
| RRIRPRPPRLPRPRPRPAFEPRP | 0.139 |
| RRIRPRPPRLPRPRPRPAFNPRP | -0.0727 |
| RRIRPRPPRLPRPRPRPAFSPRP | 0.117 |
| RRIRPRPPRLPRPRPRPAGPPRP | 0.314 |
| RRIRPRPPRLPRPRPRPAGRPRP | 0.395 |
| RRIRPRPPRLPRPRPRPAGTPRP | -0.07 |

| Sequence | shrunken log2 fold change |
| --- | --- |
| RRIRPRPPRLPRPRPRPAHFPRP | 0.111 |
| RRIRPRPPRLPRPRPRPAHPPRP | 0.273 |
| RRIRPRPPRLPRPRPRPAHSPRP | -0.00917 |
| RRIRPRPPRLPRPRPRPAIDPRP | 1.19 |
| RRIRPRPPRLPRPRPRPAISPRP | -0.103 |
| RRIRPRPPRLPRPRPRPAKTPRP | -0.168 |
| RRIRPRPPRLPRPRPRPAKYPRP | -0.317 |
| RRIRPRPPRLPRPRPRPALSPRP | 0.139 |
| RRIRPRPPRLPRPRPRPANFPRP | -0.0737 |
| RRIRPRPPRLPRPRPRPAPEPRP | 0.346 |
| RRIRPRPPRLPRPRPRPAPKPRP | 0.702 |
| RRIRPRPPRLPRPRPRPAQVPRP | -0.0714 |
| RRIRPRPPRLPRPRPRPASIPRP | -0.228 |
| RRIRPRPPRLPRPRPRPATTPRP | 0.0694 |
| RRIRPRPPRLPRPRPRPAWVPRP | 0.401 |
| RRIRPRPPRLPRPRPRPAYQPRP | -0.0181 |
| RRIRPRPPRLPRPRPRPAYTPRP | -0.116 |
| RRIRPRPPRLPRPRPRPCAGPRP | 0.122 |
| RRIRPRPPRLPRPRPRPCAPPRP | 0.159 |
| RRIRPRPPRLPRPRPRPCCIPRP | -0.269 |
| RRIRPRPPRLPRPRPRPCDFPRP | -0.179 |
| RRIRPRPPRLPRPRPRPCDLPRP | -0.428 |
| RRIRPRPPRLPRPRPRPCEKPRP | 0.0377 |
| RRIRPRPPRLPRPRPRPCELPRP | -0.17 |
| RRIRPRPPRLPRPRPRPCEQPRP | 0.102 |

| Sequence | shrunken log2 fold change |
| --- | --- |
| RRIRPRPPRLPRPRPRPCFDPRP | 0.0273 |
| RRIRPRPPRLPRPRPRPCGYPRP | -0.136 |
| RRIRPRPPRLPRPRPRPCIKPRP | -0.441 |
| RRIRPRPPRLPRPRPRPCISPRP | -0.0753 |
| RRIRPRPPRLPRPRPRPCKGPRP | -0.252 |
| RRIRPRPPRLPRPRPRPCKIPRP | -0.0494 |
| RRIRPRPPRLPRPRPRPCLAPRP | -0.109 |
| RRIRPRPPRLPRPRPRPCMHPRP | -0.297 |
| RRIRPRPPRLPRPRPRPCMKPRP | -0.0472 |
| RRIRPRPPRLPRPRPRPCNPPRP | -0.0662 |
| RRIRPRPPRLPRPRPRPCPMPRP | -0.156 |
| RRIRPRPPRLPRPRPRPCPPPRP | -0.0276 |
| RRIRPRPPRLPRPRPRPCQGPRP | 0.056 |
| RRIRPRPPRLPRPRPRPCSQPRP | -0.257 |
| RRIRPRPPRLPRPRPRPCSTPRP | -0.173 |
| RRIRPRPPRLPRPRPRPCTIPRP | -0.536 |
| RRIRPRPPRLPRPRPRPCVRPRP | 0.14 |
| RRIRPRPPRLPRPRPRPCWGPRP | -0.0769 |
| RRIRPRPPRLPRPRPRPDAMPRP | 0.319 |
| RRIRPRPPRLPRPRPRPDANPRP | 0.172 |
| RRIRPRPPRLPRPRPRPDAQPRP | 0.271 |
| RRIRPRPPRLPRPRPRPDCFPRP | 0.112 |
| RRIRPRPPRLPRPRPRPDCVPRP | -0.0187 |
| RRIRPRPPRLPRPRPRPDDGPRP | -0.21 |
| RRIRPRPPRLPRPRPRPDDQPRP | 0.0917 |

| Sequence | shrunken log2 fold change |
| --- | --- |
| RRIRPRPPRLPRPRPRPDFVPRP | -0.107 |
| RRIRPRPPRLPRPRPRPDIEPRP | -0.215 |
| RRIRPRPPRLPRPRPRPDKAPRP | 0.00631 |
| RRIRPRPPRLPRPRPRPDKGPRP | 0.118 |
| RRIRPRPPRLPRPRPRPDKNPRP | -0.308 |
| RRIRPRPPRLPRPRPRPDKSPRP | -0.442 |
| RRIRPRPPRLPRPRPRPDLFPRP | 0.0947 |
| RRIRPRPPRLPRPRPRPDLVPRP | -0.0293 |
| RRIRPRPPRLPRPRPRPDMWPRP | -0.103 |
| RRIRPRPPRLPRPRPRPDNIPRP | -0.406 |
| RRIRPRPPRLPRPRPRPDNQPRP | -0.357 |
| RRIRPRPPRLPRPRPRPDNTPRP | -0.373 |
| RRIRPRPPRLPRPRPRPDPTPRP | 0.166 |
| RRIRPRPPRLPRPRPRPDQFPRP | -0.0233 |
| RRIRPRPPRLPRPRPRPDQIPRP | -0.265 |
| RRIRPRPPRLPRPRPRPDQPPRP | -0.0572 |
| RRIRPRPPRLPRPRPRPDRAPRP | 0.622 |
| RRIRPRPPRLPRPRPRPDSTPRP | -0.679 |
| RRIRPRPPRLPRPRPRPDTDPRP | -0.158 |
| RRIRPRPPRLPRPRPRPDTTPRP | -0.156 |
| RRIRPRPPRLPRPRPRPEAHPRP | 0.0215 |
| RRIRPRPPRLPRPRPRPECQPRP | 0.126 |
| RRIRPRPPRLPRPRPRPEDKPRP | 0.163 |
| RRIRPRPPRLPRPRPRPEEDPRP | 0.192 |
| RRIRPRPPRLPRPRPRPEFSPRP | -0.0202 |
